Like-named read-outs stand apart in the source and are kept apart here.
Key:
[1] = target: T1, FLP recombinase (native yeast) (Saccharomyces cerevisiae) (UniProt P03870); experiment: cleavage_in_vitro
T1 sequence: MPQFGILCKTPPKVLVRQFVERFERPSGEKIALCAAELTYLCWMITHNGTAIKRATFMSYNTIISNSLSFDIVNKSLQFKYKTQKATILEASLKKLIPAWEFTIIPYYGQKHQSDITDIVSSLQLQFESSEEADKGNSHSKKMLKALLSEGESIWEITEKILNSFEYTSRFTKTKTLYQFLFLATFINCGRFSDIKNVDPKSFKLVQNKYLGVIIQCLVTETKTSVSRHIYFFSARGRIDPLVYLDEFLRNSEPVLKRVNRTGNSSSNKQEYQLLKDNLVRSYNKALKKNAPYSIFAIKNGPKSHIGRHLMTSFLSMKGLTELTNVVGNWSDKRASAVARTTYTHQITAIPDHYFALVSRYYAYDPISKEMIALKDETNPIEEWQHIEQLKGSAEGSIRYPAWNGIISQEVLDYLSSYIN

[2] = target: T1, FLP recombinase (native yeast) (Saccharomyces cerevisiae)

Sequence	activity (% excision efficiency relative to FRT1) ([1]; 30 C, 10 mM MgCl2)	further results
AGTTCCTATACTATACAAAGAATAGGAACT (double strand) [FRT70]	25	
AGTTCCTATACTCCACAGAGAATAGGAACT (double strand) [FRT55]	7	
AGTTCCTATACTCTATGTAGAATAGGAACT (double strand) [FRT12]	102	
AGTTCCTATACTCTCTAGAGAATAGGAACT (double strand) [FRT89]	39	
AGTTCCTATACTCTCTTGAGAATAGGAACT (double strand) [FRT45]	5	
AGTTCCTATACTCTTTTGAGAATAGGAACT (double strand) [FRT5]	15	activity (% co-integrants at 2 h) ([2]; in vitro co-integration FRT5+FRT5, 10 mM MgCl2, 5 mM DTT): 0.09
AGTTCCTATACTGAAAAGAGAATAGGAACT (double strand) [FRT78]	60	
AGTTCCTATACTGAGAGAAGAATAGGAACT (double strand) [FRT74]	5	
AGTTCCTATACTGATTGGAGAATAGGAACT (double strand) [FRT65]	18	
AGTTCCTATACTGTAAAAAGAATAGGAACT (double strand) [FRT53]	64	
AGTTCCTATACTGTAATGAGAATAGGAACT (double strand) [FRT34]	34	
AGTTCCTATACTTCCATAAGAATAGGAACT (double strand) [FRT76]	30	
AGTTCCTATACTTCCGAGAGAATAGGAACT (double strand) [FRT43]	14	
AGTTCCTATACTTTAGGTAGAATAGGAACT (double strand) [FRT62]	72	
AGTTCCTATACTTTCTAGAGAATAGGAACT (double strand) [FRT1 (wild-type minimal FRT)]		activity (% excision efficiency relative to FRT1) ([1]; reference pair, 25 mM Tris pH 7.5, 10 mM MgCl2, 5 mM DTT, 30 C 30 min): 100; activity (% co-integrants at 2 h) ([2]; in vitro co-integration FRT1+FRT1, 10 mM MgCl2, 5 mM DTT): 1.03
AGTTCCTATACTTTCTCGAGAATAGGAACT (double strand) [FRT86]	12	
AGTTCCTATACTTTCTGGAGAATAGGAACT (double strand) [FRT87]	93	
AGTTCCTATACTTTCTTGAGAATAGGAACT (double strand) [FRT85]	116	
AGTTCCTATACTTTTCTAAGAATAGGAACT (double strand) [FRT57]	82	
AGTTCCTATACTTTTGTGAGAATAGGAACT (double strand) [FRT69]	9	
AGTTCCTATACTTTTTGAAGAATAGGAACT (double strand) [FRT6]		activity (% co-integrants at 2 h) ([2]; in vitro co-integration FRT6+FRT6, 10 mM MgCl2, 5 mM DTT): 0.27

From patent publication US20130052739
